Data reported in patent EP4361176A1.
Substitutions are numbered along the chain they refer to. Blank lines part the entries; values can stand above or below the binder they belong to.

Tests used:
[1] = biological target: human FcγRIIb extracellular domain with C-terminal His-tag (human) (UniProt P31994); assay: SPR; binding amount / that of 04H1389-G1m/04L1615-k0MT
[2] = biological target: human FcγRIIb extracellular domain with C-terminal His-tag (human) (UniProt P31994); assay: SPR (Biacore T200), FcγRIIb, amount bound per unit captured antibody
[3] = biological target: human CTLA4 (soluble analyte of the Biacore assays of Reference Example 3-3) (human) (UniProt P16410); assay: SPR Biacore T200, 10 uM ATP
[4] = biological target: human FcγRIIb extracellular domain with C-terminal His-tag (human) (UniProt P31994); assay: SPR (Biacore T200), FcγRIIb 1000 nM, amount bound per unit captured antibody
[5] = biological target: human FcγRIIb extracellular domain with C-terminal His-tag (human) (UniProt P31994); assay: SPR; binding amount / that of 04H1637-G1m/04L1610-lam1
hCTLA4-His-BAP (human) [6] = biological target: T1, hCTLA4-His-BAP (human); assay: IgG ELISA, 2.5 ug/mL IgG, 1 mM AMP; overflow set to 5.00
T1 sequence (chain, biotin on the BAP-tag): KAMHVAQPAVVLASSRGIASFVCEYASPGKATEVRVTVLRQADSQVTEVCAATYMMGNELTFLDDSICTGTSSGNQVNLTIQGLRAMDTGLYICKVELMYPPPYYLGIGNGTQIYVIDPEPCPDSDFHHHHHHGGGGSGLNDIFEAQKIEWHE

hCTLA4-His-BAP (human) [7] = biological target: T1, hCTLA4-His-BAP (human); assay: IgG ELISA, absorbance with / without AMP
hCTLA4-His-BAP (human) [8] = biological target: T1, hCTLA4-His-BAP (human); assay: IgG ELISA, 2.5 ug/mL IgG, no AMP
hCTLA4-His-BAP (human) [9] = biological target: T1, hCTLA4-His-BAP (human); assay: IgG ELISA, 2.5 ug/mL IgG, 1 mM AMP

human FcγRIIb extracellular domain with C-terminal His-tag (human), sequence (P31994 43-217): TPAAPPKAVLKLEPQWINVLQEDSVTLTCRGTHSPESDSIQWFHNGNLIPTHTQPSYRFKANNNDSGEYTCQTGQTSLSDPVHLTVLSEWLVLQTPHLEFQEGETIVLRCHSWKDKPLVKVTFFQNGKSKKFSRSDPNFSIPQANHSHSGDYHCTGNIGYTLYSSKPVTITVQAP

B1: 04H1389-Ks473/04L1615-k0MT//04H1389-Hs482/04L1615-k0MT (antibody)
heavy 1: EVQLVESGGGLVKPGGSLRLSCAASGFTFSSKTMNWVRQAPGKGLEWVSSISTQSHYIYYAESVKGRFTISRDNAKNSLYLQMNSLRAEDTAVYYCARYGKREDMLWVFDYWGQGTLVTVSSASTKGPSVFPLAPSSKSTSGGTAALGCLVKDYFPEPVTVSWNSGALTSGVHTFPAVLQSSGLYSLSSVVTVPSSSLGTQTYICNVNHKPSNTKVDKRVEPKSCDKTHTCPPCPAPEFQWGPMVFLFPPKPKDVLMISRTPEVTCVVVDVSDEEPEVKFNWYVDGVEVHNAKTKPREEQYNATYRVVSVLPVLHQDWLNGKEYKCKVSNDALPAPIEKTISKAKGQPREPQVYTLPPSREEMTKNQVSLWCLVKGFYPSDIAVEWESNGQPENNYKTTPPVLDSDGSFFLYSKLTVDKSRWQQGNVFSCSVMHEALHAHTTRKELSLSP
heavy 2: EVQLVESGGGLVKPGGSLRLSCAASGFTFSSKTMNWVRQAPGKGLEWVSSISTQSHYIYYAESVKGRFTISRDNAKNSLYLQMNSLRAEDTAVYYCARYGKREDMLWVFDYWGQGTLVTVSSASTKGPSVFPLAPSSKSTSGGTAALGCLVKDYFPEPVTVSWNSGALTSGVHTFPAVLQSSGLYSLSSVVTVPSSSLGTQTYICNVNHKPSNTKVDKRVEPKSCDKTHTCPPCPAPELLAGPSVFLFPPKPKDVLMISRTPEVTCVVVDVSHEEPEVKFNWYVDGVEVHNAKTKPREEQYNATYRVVSVLPVLHQDWLNGKEYKCKVSNDALPKPDEETISKAKGQPREPQVYTLPPSREEMTKNQVSLSCAVKGFYPSDIAVEWESNGQPENNYKTTPPVLDSDGSFFLVSKLTVDKSRWQQGNVFSCSVMHEALHAHTTRKELSLSP
light: DIVMTQSPLSLPVTPGEPASISCQGPSTGVGDYNYVHWYQQKPGQAPRLLIYFTSKKPSGVPDRFSGSGSGTDFTLKISRVEAEDVGVYYCQTYAAPLGPMFGQGTKLEIKRTVAAPSVFIFPPSDEQLKSGTASVVCLLNNFYPREAKVQWKVDNALQSGNSQESVTEQDSKDSTYSLSSTLTLSKADYEKHKVYACEVTHQGLSSPVTKSFNRGEC
Relative binding amount [1]: 2.3
Binding amount [2]: 0.026

B2: 04H1389-Km481/04L1615-k0MT//04H1389-Hm498/04L1615-k0MT (antibody)
heavy 1: B1 heavy 1 with I337E, Y354C
heavy 2: B1 heavy 2 with K335A, D337E, E361C
light: B1 light
Relative binding amount [1]: 1.9
Binding amount [2]: 0.021

B3: 04H1389-G1m/04L1086-lam1 (antibody, human IgG1, lambda, V domains shown)
VH: EVQLVESGGGLVKPGGSLRLSCAASGFTFSSKTMNWVRQAPGKGLEWVSSISTQSHYIYYAESVKGRFTISRDNAKNSLYLQMNSLRAEDTAVYYCARYGKREDMLWVFDYWGQGTLVTVSS
VL: QSALTQPPSASGSPGQTVTISCDGPSTGVGDYNYVHWYQQHPGKAPKLMIYFTSKKPSGVPDRFSGSKSGNTASLTVSGLQAEDEADYFCQTYAAPLGPMFGGGTKLTVLG
fold enhanced binding vs parent 04H1207-G1m/04L1086-lam1 [3]: 10 fold

B4: 04H1382-G1m/04L1086-lam1 (antibody, human IgG1, lambda, V domains shown)
VH: B3 VH with E62R
VL: B3 VL
fold enhanced binding vs parent 04H1208-G1m/04L1086-lam1 [3]: 10 fold

B5: 04H1654-KT462/04L1612-lam1//04H1656-HT445/04L1612-lam1 (antibody, human IgG1, lambda)
heavy 1: QVQLVESGGGVVQPGGSLRLSCAASGFTFSSKTMNWVRQAPGKGLEWVSSISTQSHYIYYARSVRGRFTISRDNAKNSLYLQMNSLRAEDTAVYYCARYGKREDMLWVFDYWGQGTLVTVSSASTKGPSVFPLAPSSKSTSGGTAALGCLVKDYFPEPVTVSWNSGALTSGVHTFPAVLQSSGLYSLSSVVTVPSSSLGTQTYICNVNHKPSNTKVDKRVEPKSCDKTHTCPPCPAPEFQWGPMVFLFPPKPKDVLMISRTPEVTCVVVDVSDEEPEVKFNWYVDGVEVHNAKTKPREEQYNATYRVVSVLPVLHQDWLNGKEYKCKVSNDALPAPIEKTISKAKGQPREPQVYTLPPSRKEMTKNQVSLTCLVKGFYPSDIAVEWESNGQPENNYKTTPPVLDSDGSFFLYSKLTVDKSRWQQGNVFSCSVMHEALHNHYTQKSLSLSP
heavy 2: QVQLVESGGGVVQPGGSLRLSCAASGFTFSSKTMNWVRQAPGKGLEWVSSISTQSHYIYYAESVRGRFTISRDNAKNSLYLQMNSLRAEDTAVYYCARYGAREDMLWVFDYWGQGTLVTVSSASTKGPSVFPLAPSSKSTSGGTAALGCLVKDYFPEPVTVSWNSGALTSGVHTFPAVLQSSGLYSLSSVVTVPSSSLGTQTYICNVNHKPSNTKVDKRVEPKSCDKTHTCPPCPAPELLAGPSVFLFPPKPKDVLMISRTPEVTCVVVDVSHEEPEVKFNWYVDGVEVHNAKTKPREEQYNATYRVVSVLPVLHQDWLNGKEYKCKVSNDALPKPDEETISKAKGQPREPQVYTLPPSREEMTKNQVSLTCLVKGFYPSDIAVEWESNGQPENNYKTTPPVLDSDGSFFLYSKLTVDKSRWQQGNVFSCSVMHEALHNHYTQESLSLSP
light: QSALTQPPSASGSPGQSVTISCEGPSTGVGDYTYVHWYQQHPGKAPKLMIYFTSKKPSGVPDRFSGSKSGNTASLTVSGLQAEDEADYYCQTYAAPLGPMFGGGTKLTVLGQPKAAPSVTLFPPSSEELQANKATLVCLISDFYPGAVTVAWKADSSPVKAGVETTTPSKQSNNKYAASSYLSLTPEQWKSHRSYSCQVTHEGSTVEKTVAPTECS
Binding amount [4]: 0.028
Relative binding amount [5]: 3.4

B6: 04H1654-KT473/04L1612-lam1//04H1656-HT482/04L1612-lam1 (antibody)
heavy 1: B5 heavy 1 with N439A, Y441T, Q443R, S445E
heavy 2: B5 heavy 2 with N439A, Y441T, Q443R, S445E
light: B5 light
Binding amount [4]: 0.026
Relative binding amount [5]: 3.2

B7: 04H1389-Km461/04L1615-k0MT//04H1389-Hm443/04L1615-k0MT (antibody, human IgG1, kappa)
heavy 1: B1 heavy 1 with I337E, Y354C, A439N, T441Y, R443Q, E445S
heavy 2: B1 heavy 2 with K335A, D337E, E361C, A439N, T441Y, R443Q, E445S
light: B1 light
Relative binding amount [1]: 2.1
Binding amount [2]: 0.024

B8: 04H1389-Km462/04L1615-k0MT//04H1389-Hm445/04L1615-k0MT (antibody, human IgG1, kappa)
heavy 1: B1 heavy 1 with Y354C, A439N, T441Y, R443Q, E445S
heavy 2: B1 heavy 2 with E361C, A439N, T441Y, R443Q, E445S
light: B1 light
Relative binding amount [1]: 2.6
Binding amount [2]: 0.029

B10: 04H1654-KT461/04L1612-lam1//04H1656-HT443/04L1612-lam1 (antibody, human IgG1, lambda)
heavy 1: B5 heavy 1 with I337E
heavy 2: B5 heavy 2 with K335A, D337E
light: B5 light
Binding amount [4]: 0.025
Relative binding amount [5]: 3.1

B11: 04H1389-Ks461/04L1615-k0MT//04H1389-Hs443/04L1615-k0MT (antibody, human IgG1, kappa)
heavy 1: B1 heavy 1 with I337E, A439N, T441Y, R443Q, E445S
heavy 2: B1 heavy 2 with K335A, D337E, A439N, T441Y, R443Q, E445S
light: B1 light
Relative binding amount [1]: 2.1
Binding amount [2]: 0.024

B12: 04H1389-Ks462/04L1615-k0MT//04H1389-Hs445/04L1615-k0MT (antibody, human IgG1, kappa)
heavy 1: B1 heavy 1 with A439N, T441Y, R443Q, E445S
heavy 2: B1 heavy 2 with A439N, T441Y, R443Q, E445S
light: B1 light
Relative binding amount [1]: 2.6
Binding amount [2]: 0.03

Now from value to binder:

Binding amount [4]: 0.022
Relative binding amount [5]: 2.8
B9: 04H1654-KT481/04L1612-lam1//04H1656-HT498/04L1612-lam1 (antibody)
heavy 1: B5 heavy 1 with I337E, N439A, Y441T, Q443R, S445E
heavy 2: B5 heavy 2 with K335A, D337E, N439A, Y441T, Q443R, S445E
light: B5 light

450 nm Absorbance (hCTLA4-His-BAP (human) [6]): > 5
S/N (hCTLA4-His-BAP (human) [7]): > 1.45
450 nm Absorbance (hCTLA4-His-BAP (human) [8]): 3.46
B13: ABAM001 (antibody, human IgG1, V domains shown)
VH: EVQLVESGGDLVKPGGGLRLSCAASGFTFSSYTMHWVRQAPGKGLEWVSSISSRSRYKYYADSVKGRFTISRDNAKNSLYLQMNSLRAEDTAVYYCARFGIKNKRNWVLDYWGQGTLVTVSS
VL: QSALTQPPSASGSPGQTVTISCTGTSTDVGAYNYVSWYQQHPGKAPKLMIYQVSKRPSGVPDRFSGSKSGNTASLTVSGLQAEDEADYFCSLYTTRPQLAFGGGTKLTVL

S/N (hCTLA4-His-BAP (human) [7]): 4.46
450 nm Absorbance (hCTLA4-His-BAP (human) [8]): 0.069
450 nm Absorbance (hCTLA4-His-BAP (human) [9]): 0.303
B14: ABAM005 (antibody, human IgG1, V domains shown)
VH: EVQLVESGGDLVKPGGGLRLSCAASGFTFSGYTMNWVRQAPGKGLEWVSSISSRSNYISYADSVKGRFTISRDNAKNSLYLQMNSLRAEDTAVYYCARYGALNHMLWVFDYWGQGTLVTVSS
VL: B13 VL with Q52S, V53T, T94R, T95Y, R96A, P97Q, Q98G, L99V, A100V

450 nm Absorbance (hCTLA4-His-BAP (human) [6]): > 5
S/N (hCTLA4-His-BAP (human) [7]): > 1.57
450 nm Absorbance (hCTLA4-His-BAP (human) [8]): 3.18
B15: ABAM003 (antibody, human IgG1, V domains shown)
VH: B13 VH with S31G, K58A, Y59S, K104H, R105L, L109F
VL: QSALTQPPSASGSPGQTVTISCTGTSSDVGDYNYVSWYQQHPGKAPKLMIYGVSKRPSGVPDRFSGSKSGNTASLTVSGLQAEDEADYFCSTVSTSHSPVFGGGTKLTVL

450 nm Absorbance (hCTLA4-His-BAP (human) [6]): > 5
S/N (hCTLA4-His-BAP (human) [7]): > 36
450 nm Absorbance (hCTLA4-His-BAP (human) [8]): 0.139
B16: ABAM002 (antibody, human IgG1, V domains shown)
VH: B14 VH with G31S, N56T, I58A, S59H, Y99F, A101G, L102R, N103G, M105L
VL: B15 VL with S27T, D31T, G52Q, V53G, T95G, S96D, H97F, S98H, P99V, V100A

S/N (hCTLA4-His-BAP (human) [7]): 3.86
450 nm Absorbance (hCTLA4-His-BAP (human) [8]): 0.776
450 nm Absorbance (hCTLA4-His-BAP (human) [9]): 3
B17: ABAM006 (antibody, human IgG1, V domains shown)
VH: B13 VH with S31T, R56G, Y57H, K58A, Y59H, I101R, N103K, N106L, L109F
VL: B13 VL with A31F, V53N, L92T, Y93N, T94R, T95A, R96A, P97R, Q98S, L99V
